According to the DeepSol protein solubility set:

test: soluble on expression in E. coli; label from the status in PepcDB or PDB records

| Sequence | soluble on expression in E. coli |
| --- | --- |
| MDKFKSMTELKELTKEGKDWEIECENRSSIVTILALHGGGIEPATTELAYTIAHCGDYNYFSFKGMRSKGNNELHVTSTHYDDQIALDLVRGSQRTVAIHGCEGNESVAYIGGSDDRLIELITESLEDIGISVREAPHHISGTQENNIVNMTQTQGGVQLELTAQLRKELFKNRKSSLEHHHHHH | not soluble |
| MDKGLSRLVELLNARGASMEEMVRLLEEERASIVALQAERLQAAVEQKVQVAARMEALDGDCRRVIADEARVRGLGEATLSPLLAGNPSPEKTELAGLQTKLSTLAQEIKGMIADNRRLLETSMVTVGRSLAFFQSRLTVAETYGNSGSMVERSSGGILRKEI | not soluble |
| MDKIIKSIAQSGAFRAYVLDSTETVALAQEKHNTLSSSTVALGRTLIANQILAANQKGDSKITVKVIGDSSFGHIISVADTKGHVKGYIQNTGVDIKKTATGEVLVGPFMGNGHFVTIIDYGTGNPYTSTTPLITGEIGEDFAYYLTESEQTPSAIGLNVLLDENDKVKVAGGFMVQVLPGASEEEIARYEKRLQEMPAISHLLASKNHVDALLEAIYGDEPYKRLSEEPLSFQCDCSRERFEAALMTLPKADLQAMIDEDKGAEIVCQFCGTKYQFNESDLEAIISDKA | not soluble |
| MDKLGLSKRGYFDFALKNKKWILLAVSGYGAFRVYHSPSISQKRKRISKLFTLLLNLIEAASDSAETVSVISKDLTEFLRSDSDQIPNSLKQISKIAKSDELNSSLIRFTQAMTVGLIRGIDDGSGSGFTDRVMDKLFTKSGSGFASAIVGSFARNLVVALYSSAGDGSNSKLLDAVFSDDGRRLIGDCVQRFVSTAVSVYLDKTSDVNVFDDLFAGLTNPKHEGKVKQTLVTLCNSAVETFVRASRKPVQLNRSSSCQDSSQTLTVGSTKQATWIDRVSSSLSVPSNRKYVVDLTGRVTFETVRSLLEVLIERANGKVESYVEKVRERGNETRRFVRVKTSLLHSLCLSLCLQIVEAPWMLTPRN | not soluble |
| MDKLNKITVPASQKLRQLQKMVHDIKNNEGGIMNKIKKLKVKAPPSVPRRDYASESPADEEQQWSDDFDSDYENPDEHSDSEMYVMPAEENADDSYEPPPVEQETRPVHPALPFARGEYIDNRSSQRHSPPFSKTLPSKPSWPSEKARLTSTLPALTALQKPQVPPKPKGLLEDEADYVVPVEDNDENYIHPTESSSPPPEKAPMVNRSTKPNSSTPASPPGTASGRNSGAWETKSPPPAAPSPLPRAGKKPTTPLKTTPVASQQNASSVCEEKPIPAERHRGSSHRQEAVQSPVFPPAQKQIHQKPIPLPRFTEGGNPTVDGPLPSFSSNSTISEQEAGVLCKPWYAGACDRKSAEEALHRSNKDGSFLIRKSSGHDSKQPYTLVVFFNKRVYNIPVRFIEATKQYALGRKKNGEEYFGSVAEIIRNHQHSPLVLIDSQNNTKDSTRLKYAVKVS | not soluble |
| MDKNRVFGQRLRQSIQNYFSSPWLLYTAKAEALLDLRDDEAMLNEMEAVGELPMALEYESLTDVQTQIVTAIQAELAHFRNTAQPINLGAVLQEQLARYPQSRHFDVARIIVDQAVKLGMASQDHQAVYPVWQPIDDFSAAVQAHLIDQYDK | soluble |
| MDLIFSLGVMIMPLTPPASPKTERRSEEDNQQTNQQGNEQGNQQPRSSILTLFGFTPNALVMPCPHGHGHFHIMDIQADDTLVFATMNGSPEIMSLLALQFLMQNVNLNLDDMLAAETDAKEAEEKEEQELSSSESVNEEKEEAEFSSSESENEEKEEENEESSRFTM | not soluble |
| MDLMEEMWISRPQRRMTKLSDLSDGSIARIKFYNANKEYTVDSFKIMFAEYQKSIYCNQEVIGVCHSISDYSYIVDYINNSHFRNELDIFTPEFDKKRTHHITSHKSDKDTLQVRVISNEGVIKSYDMSAIEITFEKMYHIIDKERNGYRSGQL | not soluble |
| MDLQTSSKFLQNQLAHLFQCERDSADVENSEGCFSTGNDPAFKDERLRFEFHTEPFNRRYLLRVVKVPP | not soluble |
| MDLSIFKNARAKPVPRPAPAGAASGLHDPLAPTIFHEAWWLDASAPDGWSETLVRADNRIVGRLPYMILRKPFGQTSCEMPKFAHFLGPAVAPGPGARANRALKEAQIVRELHEQLPPTGNLYMRMHRGVTDTMVHAEAGLHMLVNFTFEIAPGCEQAIWAGMRDKTRNIIRRAQEKHCVSDTLDPRDFAACYRRNVDEAGHESYYETDEIVRVCTAALERGRGRILSATGPDGGLAAAIFTIWDATSCYYLLATRSRGEDHGATSLLLWEAIRHANRMGLIFDFDGLYTRGNRVFFTGFGGTVHPRYVVCGSTRTYRATAALSKALSRLRRP | not soluble |
| MDLTVPVEYSRAGNTTHSGNVHAIQDDEKFSYGTAGFRFKSEKLPFIVFRCAYVASLRARQLNSAIGVMITASHNPSCDNGVKLVDPSGDMLNEQWEIYATEVVNATDAELPAAVRALEKQISVGKTQLSRVVCGMDTRCSGPCLMNAARAGAALFNVQFDDIGVVSTPMLHYAVKAFNEPKFAEPTHDGYYSAIADSFKKLYEITEEPKDSRYQPKVIVDCANGVGAPRFRNLLERIPSSLLEVEFRNESEELNQGCGADFVKISQKLPANFSPTAAEPKCASFDGDADRLMYFRAKASENSESNDAELFDGDKIAVLIVTYIREQLKDYENSTPMERLRLGIVQTAYANGSSTRYIREKLGIEPIIVPTGVKHLHEAASEFDIGIYFEANGHGTVVFSEIFDRIIRRTPTESLPLRRLALFSRVINETVGDAFADLLAVEAVLRHYGWSMDDWAEKLYRDVPNVQIKVPVIDRSIFKTTNAEQTLVKPVGIQKMIDTDVAKYNNSRAFIRPSGTENIVRVYAEADTVENTLQLGKSLEQVVLNLCNSN | not soluble |
| MDMDEKDVVETEEESFAELFEKSNSETQRLRPGSKVEGKILKIGAEWVFIDIGKKGEGVMERKELQDAEGNLTVAEGDTITAWFTGSVRNEMRFTTKLGAGAAANAQLEEAHRSGIPVEGFVVKEIKGGFEVRLSGTTRAFCPFSQISLRRAENPAEFVGKHLLFKVTEYSERGRNIVLSHRQILEEEQRVKREALKEVLLEGMTVTGTVTRLADFGAFVDLGGVDGLIPVSEVGWTRVKHVRDVLSVGEQVSVVIKKIDWEAGKISLSLKDTLADPWTTVAEQFPEGSYHTGTVARLAAFGAFVTLAPGIDGLIHISKLGKGKRINHPSDVLKEGETVEVKVDGVDREARRLSLALAEVSRAAEEEEKSVASFRQQATSSSKESMGSFGDLLKAKIEEKRLEHHHHHH | not soluble |
| MDNCNAWDKLLSQNESTINSTETATITAIIYSPSSKTLHQFINICFPEGSNSILDTTLINYATIGWTNDLKENYSVDVYTLIRNTDDALDLLKPFLQEHSSKVRWLILLDWTLNDQKLWLNELSYAFNKIKQLNDDNEFSVWCLNSGEILNLQRHTTVWQSVHIDFILQTLRSFCYFNDSSLFYICEDHTEEKREEAQRLKYQELLKHFCEDRDMKDHIEMVKRSEILIPKGCDSIGLIKTVDERFEPTEVKEQHFLARYMDFIPTIDKIREDRKTTSGIDLDKLYPLEVFKVNIQEELGKMFAKYRENSRI | soluble |
| MDNDGINADPMELEKFSQLAHHWWDPNSEFKPLHEINPLRLNYIDEIIGGLSEKTVIDVGCGGGILSESMAARGASVTGIDLSDKALKVAKLHLLESGNQVDYRKITVEALATERPRYYDVVTCMEMLEHVPDPASVIQSCARLVKSGGWVFFSTLNRNPKSYLYAIIGAEYILRLLPRGTHEYAKFIKPSELAHMARSAGLMESGIVGMTYNPITKVYALEADTSVNYIMAFRA | not soluble |
| MDNIKIIVASDSIGETAELVARAGVSQFNPKQCKHEFLRYPYIESFENVDEVIQVAKDTNAIIVYTLIKPEIKKYMISKVNEHALKSVDIMGPLMELLSNSIEETPYYEPGMVHRLDDAYFKKIDAIEFAVKYDDGKDPKGLPKADIVLLGISRTSKTPLSQYLAHKSYKVMNIPIVPEVTPPDGLFNVDPSKCIALKISEEKLNRIRKERLKQLGLGDKARYATEARIQEELDYFEKLVDKIGCPVIDVSDKAIEETANDIIHFIEQNKSKLEHHHHHH | soluble |
| MDNIVTQNIKFESEPNYYLRGYHLFDISPLNGLKCEITDEFETDKIHLKIKLDWDQQEIKKITGFIQLSYDGHQLKPIDSNFDKRGGICIMTVPKYINAYRWSFSFDLKLHRYPAKPPQISHDLNPQVRSYDTMFEPSRKHDAVLLIGEKKLHVNKAFLSYHSDYFCDLFAEKFDEKNGIPIENVTYENFGLLMSIIYPEAAFSNHQNAEVLLELGNRFKIPAVMRHVENQIIRDTKFPNERLIFLADKYELQKLLAMEIQKMESFDQAKKFKGSDDYSQLSDATKAKILDRLIELS | not soluble |
